B1: nivolumab (Selleckchem, Cat. No. A2002) (antibody, V domains shown)
VH: QVQLVESGGGVVQPGRSLRLDCKASGITFSNSGMHWVRQAPGKGLEWVAVIWYDGSKRYYADSVKGRFTISRDNSKNTLFLQMNSLRAEDTAVYYCATNDDYWGQGTLVTVSS
VL: EIVLTQSPATLSLSPGERATLSCRASQSVSSYLAWYQQKPGQAPRLLIYDASNRATGIPARFSGSGSGTDFTLTISSLEPEDFAVYYCQQSSNWPRTFGQGTKVEIK
B2: pembrolizumab (Selleck Biotech Co., Ltd., Cat. No. A2005) (antibody, V domains shown)
VH: QVQLVQSGVEVKKPGASVKVSCKASGYTFTNYYMYWVRQAPGQGLEWMGGINPSNGGTNFNEKFKNRVTLTTDSSTTTAYMELKSLQFDDTAVYYCARRDYRFDMGFDYWGQGTTVTVSS
VL: EIVLTQSPATLSLSPGERATLSCRASKGVSTSGYSYLHWYQQKPGQAPRLLIYLASYLESGVPARFSGSGSGTDFTLTISSLEPEDFAVYYCQHSRDLPLTFGGGTKVEIKR
B3: ipilimumab (Selleck Biotech Co., Ltd., Cat. No. A2001) (antibody, V domains shown)
VH: QVQLVESGGGVVQPGRSLRLSCAASGFTFSSYTMHWVRQAPGKGLEWVTFISYDGNNKYYADSVKGRFTISRDNSKNTLYLQMNSLRAEDTAIYYCARTGWLGPFDYWGQGTLVTVSS
VL: not shown

What follows are binders tested against T1, recombinant hTfR described in Example 2 of WO2018/124121, random biotinylated (human, UniProt P02786 89-760, randomly biotinylated with NHS-PEG4-Biotin) (assay: ELISA, target on streptavidin plate, sample at 100 nM, anti-human IgG-HRP).
T1 construct: held on a streptavidin plate for ELISA; also called human TfR
T1 sequence (P02786 89-760 limits assumed): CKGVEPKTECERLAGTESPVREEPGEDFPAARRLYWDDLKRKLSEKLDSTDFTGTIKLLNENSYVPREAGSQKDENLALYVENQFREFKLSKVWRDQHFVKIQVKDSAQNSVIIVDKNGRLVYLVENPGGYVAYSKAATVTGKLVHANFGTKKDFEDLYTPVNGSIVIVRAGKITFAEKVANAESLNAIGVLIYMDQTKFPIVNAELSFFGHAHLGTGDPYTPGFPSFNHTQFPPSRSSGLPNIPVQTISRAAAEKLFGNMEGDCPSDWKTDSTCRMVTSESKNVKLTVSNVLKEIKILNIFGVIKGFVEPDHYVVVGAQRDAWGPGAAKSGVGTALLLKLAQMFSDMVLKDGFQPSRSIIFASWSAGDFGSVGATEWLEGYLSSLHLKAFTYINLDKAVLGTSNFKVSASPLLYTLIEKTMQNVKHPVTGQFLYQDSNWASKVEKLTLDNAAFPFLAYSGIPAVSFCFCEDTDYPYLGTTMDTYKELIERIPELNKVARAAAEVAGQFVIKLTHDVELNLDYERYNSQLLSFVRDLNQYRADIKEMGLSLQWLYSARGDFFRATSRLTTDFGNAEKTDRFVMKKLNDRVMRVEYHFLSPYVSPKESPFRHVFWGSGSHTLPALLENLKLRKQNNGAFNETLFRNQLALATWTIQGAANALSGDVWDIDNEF

Abs450 nm at 100 nM | Binder
0.049 Abs450 nm | B1
0.041 Abs450 nm | B2
0.0435 Abs450 nm | B3
